Numbering of substitutions follows the chain as printed. Values belong to the binder of their own block, whether it stands above or below them.
How the values were obtained:
Test in all cases: SPR, Fab over captured mutant LAG-3-Fc;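 note: LAG-3 fusion proteins captured on an anti-human IgG Fc sensor chip and read on an IBIS MX96 biosensor, Fab association and dissociation each 15 min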
[1] = biological target: T1, human LAG-3 domain 1-2 Fc fusion, chimeric construct #1 (mutated region AA 23-30) (human, UniProt P18627 31-266)
T1 construct: not shown: human IgG1 Fc, AA P101-K330
T1 sequence: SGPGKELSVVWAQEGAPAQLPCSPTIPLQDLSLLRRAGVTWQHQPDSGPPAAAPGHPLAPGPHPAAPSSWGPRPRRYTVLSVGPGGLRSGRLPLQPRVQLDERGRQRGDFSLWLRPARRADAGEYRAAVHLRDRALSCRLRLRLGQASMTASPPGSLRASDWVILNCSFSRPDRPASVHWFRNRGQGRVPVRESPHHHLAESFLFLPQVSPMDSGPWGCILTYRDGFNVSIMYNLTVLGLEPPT

[2] = biological target: T2, human LAG-3 domain 1-2 Fc fusion, chimeric construct #3 (mutated region AA 40-41) (human, UniProt P18627 23-266)
T2 construct: not shown: human IgG1 Fc, AA P101-K330
T2 chain: T1 sequence with S1L, G2Q, K5A, L7V, S8P, A18V, Q19H

[3] = biological target: T3, human LAG-3 domain 1-2 Fc fusion, chimeric construct #17 (mutated region AA 114-117) (human, UniProt P18627 23-266)
T3 construct: not shown: human IgG1 Fc, AA P101-K330
T3 chain: T1 sequence with S1L, G2Q, K5A, L7V, S8P, L92Q, Q95L

[4] = biological target: T4, human LAG-3 domain 1-2 Fc fusion, chimeric construct #14 (mutated region AA 88-97) (human, UniProt P18627 23-266)
T4 construct: not shown: human IgG1 Fc, AA P101-K330
T4 chain: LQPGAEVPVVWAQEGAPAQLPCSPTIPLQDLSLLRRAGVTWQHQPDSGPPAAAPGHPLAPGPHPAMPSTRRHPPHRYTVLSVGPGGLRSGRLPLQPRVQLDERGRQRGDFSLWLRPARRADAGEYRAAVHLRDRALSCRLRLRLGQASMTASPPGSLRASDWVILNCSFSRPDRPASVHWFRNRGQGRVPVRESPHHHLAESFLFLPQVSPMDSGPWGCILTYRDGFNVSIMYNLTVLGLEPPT

[5] = biological target: T5, human LAG-3 domain 1-2 Fc fusion, chimeric construct #23 (mutated region AA 148-152) (human, UniProt P18627 23-266)
T5 construct: not shown: human IgG1 Fc, AA P101-K330
T5 chain: T1 sequence with S1L, G2Q, K5A, L7V, S8P, R126H, A128F, H130R

[6] = biological target: T6, human LAG-3 domain 1-2 Fc fusion, chimeric construct #25 (mutated region AA 154-158) (human, UniProt P18627 23-266)
T6 construct: not shown: human IgG1 Fc, AA P101-K330
T6 chain: T1 sequence with S1L, G2Q, K5A, L7V, S8P, R132P, A135D, L136F

[7] = biological target: T7, human LAG-3 domain 1-2 Fc fusion, chimeric construct #18 (mutated region AA 114-119) (human, UniProt P18627 23-266)
T7 construct: not shown: human IgG1 Fc, AA P101-K330
T7 chain: T1 sequence with S1L, G2Q, K5A, L7V, S8P, L92Q, Q95L, P96S, R97H

[8] = biological target: T8, human LAG-3 domain 1-2 Fc fusion, chimeric construct #19 (mutated region AA 118-127) (human, UniProt P18627 23-266)
T8 construct: not shown: human IgG1 Fc, AA P101-K330
T8 chain: T1 sequence with S1L, G2Q, K5A, L7V, S8P, P96S, R97H, D101E, E102K, R105P

[9] = biological target: T9, human LAG-3 domain 1-2 Fc fusion, chimeric construct #5 (mutated region AA 46-51) (human, UniProt P18627 23-266)
T9 construct: not shown: human IgG1 Fc, AA P101-K330
T9 chain: T1 sequence with S1L, G2Q, K5A, L7V, S8P, P24L, T25E, I26F, L28H, Q29L

B1: Fab fragment of antibody 15572 (Fab, V domains shown, not shown: a dimerising Fc or GST)
VH: QLQLQESGPGLVKPSETLSLTCTVSGDSISSSSYYWGWIRQPPGKGLEWIGSIFYSGNTYYNPSLKSRVTISVDTSKNQFSLKLSSVTAADTAVYYCAREDDFLTDYYGAFDIWGQGTMVTVSS
VL: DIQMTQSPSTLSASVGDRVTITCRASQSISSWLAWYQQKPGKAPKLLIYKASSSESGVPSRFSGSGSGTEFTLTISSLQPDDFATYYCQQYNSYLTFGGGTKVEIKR
notes: monomeric Fab made by GingisKHAN digestion of the IgG1
- binding result [1]: no binding (tested: 300 nM)
- binding result [2]: no binding (tested: 300 nM)
- KD mutant/KD wild type [3]: 0.5 fold
- KD mutant/KD wild type [4]: 0.7 fold
- binding result [5]: no binding (tested: 300 nM)
- binding result [6]: no binding (tested: 300 nM)
- KD mutant/KD wild type [7]: 0.6 fold
- binding result [8]: no binding (tested: 300 nM)
- binding result [9]: no binding (tested: 300 nM)

B3: Fab fragment of antibody 15431 (Fab, V domains shown, not shown: a dimerising Fc or GST)
VH: QVQLQQSGPGLVKPSQTLSLTCAISGDSVSSNSAAWNWIRQSPSRGLEWLGRTYYRSKWYNDYAVSVKSRITINPDTSKNQFSLQLNSVTPEDTAVYYCARDDDWNDFDYWGQGTLVTVSS
VL: EIVLTQSPATLSLSPGERATLSCRASQSVSSYLAWYQQKPGQAPRLLIYDASNRATGIPARFSGSGSGTDFTLTISSLEPEDFAVYYCQQRSNWPLTFGGGTKVEIKR
notes: as for B1
- binding result [1]: no binding (tested: 300 nM)
- binding result [2]: no binding (tested: 300 nM)
- KD mutant/KD wild type [3]: 0.5 fold
- binding result [4]: no binding (tested: 300 nM)
- KD mutant/KD wild type [5]: 3.5 fold
- KD mutant/KD wild type [6]: 0.8 fold
- KD mutant/KD wild type [7]: 0.6 fold
- KD mutant/KD wild type [8]: 0.5 fold
- binding result [9]: no binding (tested: 300 nM)

Next, values leading:

- KD mutant/KD wild type [1]: 3.2 fold
- KD mutant/KD wild type [2]: 2.2 fold
- KD mutant/KD wild type [3]: 1.4 fold
- binding result [4]: no binding (tested: 300 nM)
- KD mutant/KD wild type [5]: 2.5 fold
- KD mutant/KD wild type [6]: 1.1 fold
- KD mutant/KD wild type [7]: 1.1 fold
- KD mutant/KD wild type [8]: 0.5 fold
- KD mutant/KD wild type [9]: 2.7 fold
B2: Fab fragment of antibody 15532 (Fab, V domains shown, not shown: a dimerising Fc or GST)
VH: QVQLQQWGAGLLRPSETLSLTCAVYGESFSGYYWNWIRQPPGKGLEWIGEINHSGSTNYNPSLKSRVTISVDTSKTQFSLKLSSVTAADTAVYYCARGWDLLDWNDYWNEYWGQGTLVTVSS
VL: B3 VL
notes: as for B1

- KD mutant/KD wild type [1]: 0.5 fold
- KD mutant/KD wild type [2]: 0.5 fold
- KD mutant/KD wild type [3]: 2.6 fold
- KD mutant/KD wild type [4]: 0.6 fold
- KD mutant/KD wild type [5]: 2 fold
- KD mutant/KD wild type [6]: 1.9 fold
- KD mutant/KD wild type [7]: 2.1 fold
- KD mutant/KD wild type [8]: 0.6 fold
- KD mutant/KD wild type [9]: 0.5 fold
B4: Fab fragment of antibody 15011 (Fab, V domains shown, not shown: a dimerising Fc or GST)
VH: EVQLLESGGGLVQPGGSLRLSCAASGFDFRSYAMMWVRQAPGKGLEWVGGINGEVGGSNTYYAPAVKGRATISRDNSKNTLYLQMNSLRAEDTAVYYCVKGAGACGICNDDIDAWGQGTLVTVSS
VL: SYELTQDPAVSVALGQTVRITCSGAGSYAGSYYYGWHQQKPGQAPVTVIYDNDKRPSNIPDRFSGSSSGNTASLTITGAQAEDEADYYCGSTNDNDDGGLFGSGTKVTVLG
notes: as for B1

— patent publication US20220363757A1 (SYMPHOGEN A S, published 2022)
